Measured values taken from patent US7655619B2, “Insulin-associated peptides with effects on cerebral health” (Thomas Jefferson University, priority 2002, dated 2010).

B1: α2HSG: endogenous inhibitor of insulin receptor tyrosine kinase activity; insulin antagonist (protein, UniProt P02765 19-300; P02765 341-367, looked up)
Alpha-2-HS-glycoprotein chain … 1: APHGPGLIYRQPNCDDPETEEAALVAIDYINQNLPWGYKHTLNQIDEVKVWPQQPSGELFEIEIDTLETTCHVLDPTPVARCSVRQLKEHAVEGDCDFQLLKLDGKFSVVYAKCDSSPDSAEDVRKVCQDCPLLAPLNDTRVVHAAKAALAAFNAQNNGSNFQLEEISRAQLVPLPPSTYVEFTVSGTDCVAKEATEAAKCNLLAEKQYGFCKATLSEKLGGAEVAVTCMVFQTQPVSSQPQPEGANEAVPTPVVDPDAPPSPPLGAPGLPPAGSPPDSHVL
Alpha-2-HS-glycoprotein chain … 2: TVVQPSVGAAAGPVVPPCPGRIRHFKV

Key:
rats [1] = test: one-trial passive avoidance procedure (associative learning), intranasal pretreatment; format: in vivo, Male Sprague Dawley rats
Method: Passive avoidance was performed in an apparatus (MED Associates Inc., St. Albans, Vt.) consisting of one dark chamber and one light chamber that can be divided by a guillotine door. The training procedure was executed as previously described (N. Venable et al. Psychopharmacology 100, 215 (1990)). Rats were administered a 1.0 mA shock for 3 sec, mice a 0.5 mA shock for 5 sec. Retention tests were performed either at 1, 3 or 7 days post-pairing. Maximum latency was 600 sec for rats, 300 sec for mice.
A control group received vehicle (5% cyclodextrin) alone.

rats [2] = test: Morris Water Maze (spatial learning), intranasal administration; format: in vivo, Male Sprague Dawley rats
Method: Spatial learning was assessed using the Morris Water Maze (Morris et al. Nature, 1982, 297: 681). […] Animals were anaesthetized with isofluorane then administered peptide intra-nasally 20 min before testing. Rats were given four training trials. 48 h after training, a retention test was performed: rats were allowed to find the hidden platform for one trial. […] Latency to find the platform was considered a measure of retention of spatial learning.

[3] = blood glucose levels by glucometer after intranasal administration; conditions: doses 3-30 μg, twenty minutes after administration, vs vehicle
Method: Rats (N-5/group) were first anesthetized with isoflorane anesthesia and then administered vehicle (5% (2,6-DI—O-methyl)β-cyclodextrin) or insulin (3-30 μg, 28 USP units/mg) intra-nasally. Twenty minutes later, rats were sacrificed and blood glucose levels rapidly determined with a glucometer (Elite XL, Bayer).

rats [4] = test: locomotor activity in open field testing chamber; conditions: 3-30 μg intranasal, 30 minutes in open field chamber, data not shown
Method: Following pretreatment, the rats were placed for 30 minutes in an open field testing chamber (17″×17″×12″ H) where movement was detected every 50 ms by infrared photo beam emitter and detector strips at 1″ and 10″ from the bottom of the chamber. The activity chambers were lined to a PC computer and data was compiled via Activity Monitor Software (4.0, MED Associates, St. Albans, Vt.).

rats [5] = test: one-trial passive avoidance with insulin antagonist α2HSG alone or in combination; format: in vivo; conditions: for latency time in passive avoidance: compared to vehicle alone
Method: After a 20 minute pretreatment time, rats were placed in the light side of a two-chambered light/dark Plexiglas passive avoidance apparatus (MED Associates). Once the rat entered the dark chamber, a guillotine door was closed and a 1.0 mA shock (3 sec) was administered. The door was then raised and the rat was allowed to re-enter the light side. Latency (max 600 sec) to enter the dark chamber was taken as a measurement of associative learning.

Molecule	retention of associative learning (24 hours) (rats [1]; FIG. 9, 24 hours)	latency to enter the dark chamber (associative learning) (rats [1]; intranasal 10 μg dose, pretreatment 20 min, compared to vehicle)	latency to find hidden platform, retention test (rats [2]; intranasal 3 μg, 48 hours following training, compared to vehicle)	latency to find submerged platform, acquisition during training (rats [2]; intranasal 3-30 μg, four training trials, between groups incl. vehicle)	swimming speed (rats [2]; intranasal, compared to vehicle)	blood glucose levels [3]	distance traveled (locomotor activity) (rats [4])	latency time in passive avoidance (rats [5]; insulin 10 μg alone intranasal)	latency time in passive avoidance (rats [5]; α2HSG 30 μg alone)	effect on enhancement of latency times by A-chain (rats [5]; α2HSG 30 μg in combination with A-chain 3 μg, intranasal)	effect on enhancement of latency times by insulin (rats [5]; α2HSG 3-30 μg in combination with insulin 10 μg, intranasal)
insulin: insulin from bovine pancreas (C254H377N65O75S6), 28 USP units/mg, from Sigma	enhances retention of associative learning	significantly (P<0.05) enhanced latency	significantly deceased latency	No significant differences occurred in acquisition between groups during training	do not affect swimming speed compared to vehicle	no significant differences between treatment groups	did not differ between treatments	enhanced latency time	–	–	–
B1	–	–	–	–	–	–	–	–	no difference between antagonist alone and vehicle alone	blocked enhancement of latency times by A-chain	blocked enhancement of latency times by insulin
